Experimental data published in PMC3834829, “A signature motif mediating selective interactions of BCL11A with the NR2E/F subfamily of orphan nuclear receptors” (Nucleic Acids Research, 2013).

B1: LexA-BCL11A-(310–325) [not stated] / AAD-PNR-LBD-(131–410) [not stated] (parent complex)
chain 1: PPAMDFSRRLRELAGN
chain 2: HLDSMESNTESRPESLVAPPAPAGRSPRGPTPMSAARALGHHFMASLITAETCAKLEPEDADENIDVTSNDPEFPSSPYSSSSPCGLDSIHETSARLLFMAVKWAKNLPVFSSLPFRDQVILLEEAWSELFLLGAIQWSLPLDSCPLLAPPEASAAGGAQGRLTLASMETRVLQETISRFRALAVDPTEFACMKALVLFKPETRGLKDPEHVEALQDQSQVMLSQHSKAHHPSQPVRFGKLLLLLPSLRFITAERIELLFFRKTIGNTPMEKLLCDMFKN
B2: AAD-COUP-TFII-LBD-(144–414) [not stated] / LexA-BCL11A-(310–325) [not stated] (parent complex)
chain 1: MRREAVQRGRMPPTQPTHGQFALTNGDPLNCHSYLSGYISLLLRAEPYPTSRFGSQCMQPNNIMGIENICELAARMLFSAVEWARNIPFFPDLQITDQVALLRLTWSELFVLNAAQCSMPLHVAPLLAAAGLHASPMSADRVVAFMDHIRIFQEQVEKLKALHVDSAEYSCLKAIVLFTSDACGLSDVAHVESLQEKSQCALEEYVRSQYPNQPTRFGKLLLRLPSLRTVSSSVIEQLFFVRLVGKTPIETLIRDMLLSGSSFNWPYMAIQ
chain 2: PPAMDFSRRLRELAGN
B3: LexA-BCL11A-(651–670) [not stated] / AAD-EAR2-LBD-(121–399) [not stated] (parent complex)
chain 1: NTENVYSQWLAGYAASRQLK
chain 2: MRKEAVQRGRIPHSLPGAVAASSGSPPGSALAAVASGGDLFPGQPVSELIAQLLRAEPYPAAAGRFGAGGGAAGAVLGIDNVCELAARLLFSTVEWARHAPFFPELPVADQVALLRLSWSELFVLNAAQAALPLHTAPLLAAAGLHAAPMAAERAVAFMDQVRAFQEQVDKLGRLQVDSAEYGCLKAIALFTPDACGLSDPAHVESLQEKAQVALTEYVRAQYPSQPQRFGRLLLRLPALRAVPASLISQLFFMRLVGKTPIETLIRDMLLSGSTFNWP
B4: LexA-BCL11A-(310–325) [not stated] / AAD-EAR2-LBD-(121–399) [not stated] (parent complex)
chain 1: PPAMDFSRRLRELAGN
chain 2: B3 chain 2
B5: LexA-BCL11A-(310–325) [not stated] / AAD-COUP-TFI-LBD-(151–467) [not stated] (parent complex)
chain 1: PPAMDFSRRLRELAGN
chain 2: MRREAVQRGRMPPTQPNPGQYALTNGDPLNGHCYLSGYISLLLRAEPYPTSRYGSQCMQPNNIMGIENICELAARLLFSAVEWARNIPFFPDLQITDQVSLLRLTWSELFVLNAAQCSMPLHVAPLLAAAGLHASPMSADRVVAFMDHIRIFQEQVEKLKALHVDSAEYSCLKAIVLFTSDACGLSDAAHIESLQEKSQCALEEYVRSQYPNQPSRFGKLLLRLPSLRTVSSSVIEQLFFVRLVGKTPIETLIRDMLLSGSSFNWPYMSIQCS
B6: AAD-COUP-TFII-LBD-(144–414) [not stated] / LexA-BCL11A-(651–670) [not stated] (parent complex)
chain 1: B2 chain 1
chain 2: NTENVYSQWLAGYAASRQLK
B7: LexA-NSD1-(790–818) [not stated] / AAD-ERα-LBD-(282–595) [not stated] (parent complex)
chain 1: SSQNHIPIEPDYKFSTLLMMLKDMHDSKT
chain 2: SAGDMRAANLWPSPLMIKRSKKNSLALSLTADQMVSALLDAEPPILYSEYDPTRPFSEASMMGLLTNLADRELVHMINWAKRVPGFVDLTLHDQVHLLECAWLEILMIGLVWRSMEHPGKLLFAPNLLLDRNQGKCVEGMVEIFDMLLATSSRFRMMNLQGEEFVCLKSIILLNSGVYTFLSSTLKSLEEKDHIHRVLDKITDTLIHLMAKAGLTLQQQHQRLAQLLLILSHIRHMSNKGMEHLYSMKCKNVVPLYDLLLEMLDAHRLHAPTSRGGASVEETDQSHLATAGSTSSHSLQKYYITGEAEGFPATV
B8: LexA-BCL11A-(651–670) [not stated] / AAD-COUP-TFI-LBD-(151–467) [not stated] (parent complex)
chain 1: NTENVYSQWLAGYAASRQLK
chain 2: B5 chain 2

Variants of: B1
Assay: yeast two-hybrid; read off a plot

| response [nmol/mg/min] | Variant |
| --- | --- |
| ~2500 | chain 1 S7A |
| ~0 | chain 1 L10A |
| ~0 | chain 1 R8A |
| ~0 | chain 1 F6A |
| ~0 | chain 1 L13A |
| ~0 | chain 1 R11A |

Variants of: B2
Assay: yeast two-hybrid; read off a plot

| response [nmol/mg/min] | Variant |
| --- | --- |
| ~2100 | chain 1 R85A |
| ~640 | chain 1 V99A |
| ~330 | chain 1 R103A |
| ~960 | chain 1 V81A |
| ~0 | chain 1 F78A |
| ~850 | chain 1 I95A |

Variants of: B3
Assay: yeast two-hybrid; read off a plot

| response [nmol/mg/min] | Variant |
| --- | --- |
| ~130 | chain 1 W9A |
| ~910 | chain 1 S7A |
| ~1800 | chain 1 G12A |
| ~840 | chain 1 Y6A |
| ~0 | chain 1 L10A |
| ~0 | chain 1 Y13A |
| ~900 | chain 1 Q8A |
| ~190 | chain 1 V5A |

Variants of: B4
Assay: yeast two-hybrid; read off a plot

| response [nmol/mg/min] | Variant |
| --- | --- |
| ~160 | chain 1 S7A |
| ~0 | chain 1 L13A |
| ~0 | chain 1 L10A |
| ~1300 | chain 1 R11A |
| ~1000 | chain 1 R8A |

Variants of: B5
Assay: yeast two-hybrid; read off a plot

| response [nmol/mg/min] | Variant |
| --- | --- |
| ~900 | chain 1 R8A |
| ~0 | chain 1 L10A |
| ~0 | chain 1 L13A |
| ~0 | chain 1 F6A |
| ~100 | chain 1 S7A |
| ~670 | chain 1 R11A |

Variants of: B6
Assay: yeast two-hybrid; read off a plot

| response [nmol/mg/min] | Variant |
| --- | --- |
| ~1200 | chain 1 R85A |
| ~2700 | chain 1 V99A |
| ~1900 | chain 1 R103A |
| ~40 | chain 1 F78A |
| ~20 | chain 1 V81A |
| ~2900 | chain 1 I95A |

Variants of: B7
Assay: yeast two-hybrid; + 1µM E2; read off a plot

| response [nmol/mg/min] | Variant |
| --- | --- |
| ~2400 | chain 1 F14A |
| ~2500 | chain 1 K22A |
| ~0 | chain 1 L21A |
| ~0 | chain 1 M20A |
| ~2700 | chain 1 M19A |
| ~2000 | chain 1 Y12A |
| ~0 | chain 1 L17A |
| ~1800 | chain 1 L18A |
| ~1700 | chain 1 D23A |
| ~2100 | chain 1 K13A |
| ~0 | chain 1 S15A |

Variants of: B8
Assay: yeast two-hybrid; read off a plot

| response [nmol/mg/min] | Variant |
| --- | --- |
| ~220 | chain 1 V5A |
| ~920 | chain 1 Q8A |
| ~0 | chain 1 W9A |
| ~0 | chain 1 L10A |
| ~0 | chain 1 S7A |
| ~0 | chain 1 Y13A |
| ~50 | chain 1 Y6A |
| ~2300 | chain 1 G12A |
